B1: SR-F1(20-221) (domain or fragment)
chain: SELDPKGQHVCVASSPSAELQCCAGWRQKDQECTIPICEGPDACQKDEVCVKPGLCRCKPGFFGAHCSSRCPGQYWGPDCRESCPCHPHGQCEPATGACQCQADRWGARCEFPCACGPHGRCDPATGVCHCEPGWWSSTCRRPCQCNTAAARCEQATGACVCKPGWWGRRCSFRCNCHGSPCEQDSGRCACRPGWWGPECQQLIK
B2: SR-F1(20-421), recombinant soluble SR-F1 ectodomain (domain or fragment)
chain: SELDPKGQHVCVASSPSAELQCCAGWRQKDQECTIPICEGPDACQKDEVCVKPGLCRCKPGFFGAHCSSRCPGQYWGPDCRESCPCHPHGQCEPATGACQCQADRWGARCEFPCACGPHGRCDPATGVCHCEPGWWSSTCRRPCQCNTAAARCEQATGACVCKPGWWGRRCSFRCNCHGSPCEQDSGRCACRPGWWGPECQQQCECVRGRCSAASGECTCPPGFRGARCELPCPAGSHGVQCAHSCGRCKHNEPCSPDTGSCESCEPGWNGTQCQQPCLPGTFGESCEQQCPHCRHGEACEPDTGHCQRCDPGWLGPRCEDPCPTGTFGEDCGSTCPTCVQGSCDTVTGDCVCSAGYWGPSCNASCPAGFHGNNCSVPCECPEGLCHPVSGSCQPGSGSRDTLIK
modifications: N-linked glycans at Asn 289, 382 and 393
B3: SR-F1(20-353) (domain or fragment)
chain: SELDPKGQHVCVASSPSAELQCCAGWRQKDQECTIPICEGPDACQKDEVCVKPGLCRCKPGFFGAHCSSRCPGQYWGPDCRESCPCHPHGQCEPATGACQCQADRWGARCEFPCACGPHGRCDPATGVCHCEPGWWSSTCRRPCQCNTAAARCEQATGACVCKPGWWGRRCSFRCNCHGSPCEQDSGRCACRPGWWGPECQQQCECVRGRCSAASGECTCPPGFRGARCELPCPAGSHGVQCAHSCGRCKHNEPCSPDTGSCESCEPGWNGTQCQQPCLPGTFGESCEQQCPHCRHGEACEPDTGHCQRCDPGWLGPRCEDPCPTGTFGEDCGSLIK
modifications: N-linked glycan at Asn 289

Each binder was assayed against complement protein C1q (human, UniProt P02745 23-245; P02746 28-253; P02747 29-245) (assay: SPR).
Sequence of complement protein C1q (P02745 23-245, chain 1 of 3): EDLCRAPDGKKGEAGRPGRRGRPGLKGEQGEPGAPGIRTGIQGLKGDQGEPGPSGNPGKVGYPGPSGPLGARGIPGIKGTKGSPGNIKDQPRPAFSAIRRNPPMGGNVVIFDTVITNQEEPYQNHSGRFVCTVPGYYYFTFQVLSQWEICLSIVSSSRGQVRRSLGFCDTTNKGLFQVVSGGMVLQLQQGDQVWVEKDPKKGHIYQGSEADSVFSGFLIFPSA
Sequence of complement protein C1q (P02746 28-253, chain 2 of 3): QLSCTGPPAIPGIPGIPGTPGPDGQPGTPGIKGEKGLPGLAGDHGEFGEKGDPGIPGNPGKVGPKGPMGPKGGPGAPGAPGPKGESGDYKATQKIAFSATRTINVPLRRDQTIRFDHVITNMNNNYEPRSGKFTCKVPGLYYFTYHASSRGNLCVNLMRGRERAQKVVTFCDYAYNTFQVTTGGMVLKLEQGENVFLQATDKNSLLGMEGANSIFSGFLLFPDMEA
Sequence of complement protein C1q (P02747 29-245, chain 3 of 3): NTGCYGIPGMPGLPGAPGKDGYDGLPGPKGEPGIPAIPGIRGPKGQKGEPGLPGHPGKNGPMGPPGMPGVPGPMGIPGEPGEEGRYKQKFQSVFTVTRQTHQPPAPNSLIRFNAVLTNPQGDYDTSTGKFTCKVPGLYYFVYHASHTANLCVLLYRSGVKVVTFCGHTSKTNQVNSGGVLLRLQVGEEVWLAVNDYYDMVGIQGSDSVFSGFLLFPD
In the case of B1, the Kd is reported as 19 nM. For B2, the Kd was 154 nM. With B3 the Kd was 42 nM.
